Test results from patent publication US20120164137A1 (MORPHOTEK, published 2012).

Legend:
[1] = molecular target: T1, Human FRA on IGROV-1 human ovarian adenocarcinoma cells (human, UniProt P15328 25-234); assay: cell-based or functional assay
[2] = molecular target: T1, Human FRA on IGROV-1 human ovarian …; assay: cell-based or functional assay; remark: listed apart in the source
[3] = molecular target: T1, Human FRA on IGROV-1 human ovarian …; assay: cell-based or functional assay; remark: listed apart in the source
[4] = molecular target: T2, Recombinant human folate receptor alpha (FRA) (human, UniProt P15328 25-234); assay: SPR, FRA on CM5 chip, parallel line analysis; reference standard = 100%
T2 construct: Immobilised on a CM5 chip by amine coupling; also called FR-alpha
T2 sequence (P15328 25-234 limits assumed): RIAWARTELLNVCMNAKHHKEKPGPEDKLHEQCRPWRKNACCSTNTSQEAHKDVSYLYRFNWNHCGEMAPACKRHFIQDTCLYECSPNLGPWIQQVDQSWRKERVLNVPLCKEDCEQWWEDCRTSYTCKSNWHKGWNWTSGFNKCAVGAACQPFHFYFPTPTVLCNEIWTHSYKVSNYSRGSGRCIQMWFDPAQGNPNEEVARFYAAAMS
Experimental: The surface was regenerated between cycles by flushing with 10 mM glycine pH 2.0.

T1 sequence (P15328 25-234 limits assumed): as above

| Binder | IC50 (Hum-ZAP secondary immunotoxin killing of IGROV-1 cells) [1] | INTL % (0 Min) [2] | INTL % (15 min) [2] | INTL % (30 min) [2] | INTL % (60 min) [2] | INTL % (150 min) [2] | Half-Maximal Internalization Constant [3] | Internalization IC50 [3] | Measured Potency (%) [4] |
| --- | --- | --- | --- | --- | --- | --- | --- | --- | --- |
| MORAb-003 anti-FRA antibody, lot NB859-25 (harvested 14 days after initiation of culture) (antibody, human IgG1, kappa, V domains shown, N-linked neutral glycans at Asn299 in SEQ ID NO: 5, also called Day 14 harvest; positive control (round 3)) VH: EVQLVESGGGVVQPGRSLRLSCSASGFTFSGYGLSWVRQAPGKGLEWVAMISSGGSYTYYADSVKGRFAISRDNAKNTLFLQMDSLRPEDTGVYFCARHGDDPAWFAYWGQGTPVTVSS VL: DIQLTQSPSSLSASVGDRVTITCSVSSSISSNNLHWYQQKPGKAPKPWIYGTSNLASGVPSRFSGSGSGTDYTFTISSLQPEDIATYYCQQWSSYPYMYTFGQGTKVEIKR | 32 ng·mL | 0% | 1% | 20% | 44% | 61% | 42 min | 0.032 µg/mL | 51.9% |
| MORAb-003 anti-FRA antibody, lot NB859-27 (harvested 20 days after initiation of culture) (antibody, human IgG1, kappa, V domains shown, N-linked neutral glycans at Asn299 in SEQ ID NO: 5, also called Day 20 harvest) VH: EVQLVESGGGVVQPGRSLRLSCSASGFTFSGYGLSWVRQAPGKGLEWVAMISSGGSYTYYADSVKGRFAISRDNAKNTLFLQMDSLRPEDTGVYFCARHGDDPAWFAYWGQGTPVTVSS VL: DIQLTQSPSSLSASVGDRVTITCSVSSSISSNNLHWYQQKPGKAPKPWIYGTSNLASGVPSRFSGSGSGTDYTFTISSLQPEDIATYYCQQWSSYPYMYTFGQGTKVEIKR | 23 ng·mL | 0% | 1% | 19% | 40% | 51% | 37.3 min | 0.023 µg/mL | 53.3% |
| MORAb-003 anti-FRA antibody, lot NB859-26 (harvested 17 days after initiation of culture) (antibody, human IgG1, kappa, V domains shown, N-linked neutral glycans at Asn299 in SEQ ID NO: 5, also called Day 17 harvest) VH: EVQLVESGGGVVQPGRSLRLSCSASGFTFSGYGLSWVRQAPGKGLEWVAMISSGGSYTYYADSVKGRFAISRDNAKNTLFLQMDSLRPEDTGVYFCARHGDDPAWFAYWGQGTPVTVSS VL: DIQLTQSPSSLSASVGDRVTITCSVSSSISSNNLHWYQQKPGKAPKPWIYGTSNLASGVPSRFSGSGSGTDYTFTISSLQPEDIATYYCQQWSSYPYMYTFGQGTKVEIKR | 36 ng·mL | 0% |  | 23% | 43% | 56% | 36.6 min | 0.036 µg/mL | 27.5% |
